Numbering of substitutions follows the chain as printed.
Experiments:
[1] = biological target: T1, SARS-CoV-2 S protein of B.1.617.2 (delta) variant, on pseudotyped MLV particles (SARS-CoV-2, UniProt P0DTC2 14-1273); assay: cell-based or functional assay
[2] = biological target: T2, SARS-CoV-2 S protein of B.1.1.7 (alpha) variant, on pseudotyped MLV particles (SARS-CoV-2, UniProt P0DTC2 14-1273); assay: cell-based or functional assay
[3] = biological target: T1, SARS-CoV-2 S protein of B.1.617.2 …; assay: cell-based or functional assay; remark: listed apart in the source
[4] = biological target: T3, SARS-CoV-2 S protein of B.1.617 (kappa) variant, on pseudotyped MLV particles (SARS-CoV-2, UniProt P0DTC2 14-1273); assay: cell-based or functional assay
[5] = biological target: T2, SARS-CoV-2 S protein of B.1.1.7 (alpha) …; assay: cell-based or functional assay; remark: listed apart in the source
[6] = biological target: SARS-CoV-2 RBD protein (Fc-tagged) (SARS-CoV-2, UniProt P0DTC2 319-541)
[7] = biological target: T4, SARS-CoV-2 RBD, Kappa (B.1.617.1) variant (SARS-CoV-2, UniProt P0DTC2 319-541); assay: SPR, RBD immobilised
T4 construct: domain: RBD

[8] = biological target: T5, SARS-CoV-2 RBD, Alpha (B.1.1.7) variant (SARS-CoV-2, UniProt P0DTC2 319-541); assay: SPR, RBD immobilised
T5 construct: domain: RBD

[9] = biological target: T6, SARS-CoV-2 RBD, Beta (B.1.351) variant (SARS-CoV-2, UniProt P0DTC2 319-541); assay: SPR, RBD immobilised
T6 construct: domain: RBD

[10] = biological target: T7, SARS-CoV-2 RBD, Delta (B.1.617.2) variant (SARS-CoV-2, UniProt P0DTC2 319-541); assay: SPR, RBD immobilised
T7 construct: domain: RBD

[11] = biological target: T8, SARS-CoV-2 RBD, Gamma (P.1) variant (SARS-CoV-2, UniProt P0DTC2 319-541); assay: SPR, RBD immobilised
T8 construct: domain: RBD

[12] = biological target: T4, SARS-CoV-2 RBD, Kappa (B.1.617.1) …; assay: competition ELISA: RBD-His with antibody, binding to coated hACE2-Fc
[13] = biological target: T6, SARS-CoV-2 RBD, Beta (B.1.351) variant; assay: as above
[14] = biological target: T7, SARS-CoV-2 RBD, Delta (B.1.617.2) …; assay: as above
[15] = biological target: T8, SARS-CoV-2 RBD, Gamma (P.1) variant; assay: as above
[16] = biological target: T4, SARS-CoV-2 RBD, Kappa (B.1.617.1) …; assay: SPR, RBD immobilised, 1:1 model
[17] = biological target: T5, SARS-CoV-2 RBD, Alpha (B.1.1.7) variant; assay: SPR, RBD immobilised, 1:1 model
[18] = biological target: T6, SARS-CoV-2 RBD, Beta (B.1.351) variant; assay: SPR, RBD immobilised, 1:1 model
[19] = biological target: T7, SARS-CoV-2 RBD, Delta (B.1.617.2) …; assay: SPR, RBD immobilised, 1:1 model
[20] = biological target: T8, SARS-CoV-2 RBD, Gamma (P.1) variant; assay: SPR, RBD immobilised, 1:1 model
[21] = biological target: SARS-CoV-2 S protein of the wild-type, on pseudotyped lentiviral particles (SARS-CoV-2); assay: cell-based or functional assay
[22] = biological target: T3, SARS-CoV-2 S protein of B.1.617 (kappa) …; assay: cell-based or functional assay; remark: listed apart in the source
[23] = biological target: SARS-CoV-2 S protein of gamma variant, on pseudotyped MLV particles (SARS-CoV-2, UniProt P0DTC2 14-1273); assay: cell-based or functional assay
[24] = biological target: SARS-CoV-2 S protein of beta variant, on pseudotyped MLV particles (SARS-CoV-2, UniProt P0DTC2 14-1273); assay: cell-based or functional assay

B1: RD3 (antibody, V domains shown)
VH: EVQLLESGGGLVQPGGSLRLSCAASGFTFSDYAMSWVRQAPGKGLEWVSWIYSGSGNKYYADSVKGRFTISRDNSKNTLYLQMNSLRAEDTAVYYCARFPIARTSNSQSSYDGMDVWGQGTLVTVSS
VL: QSVLTQPPSASGTPGQRVTISCSGSSSNIGSNAVSWYQQLPGTAPKLLIYADNKRPSGVPDRFSGSKSGTSASLAISGLRSEDEADYYCGAWDSSLNAYVFGGGTKLTVL
notes: also called K102.1
With B1 the “IC50 (nM), pseudotyped virus infection” value [1] was 4.48 nM, the “IC50 (nM), pseudotyped virus infection” value [2] was 6.16 nM and the “IC50 (nM), pseudovirus neutralization, luciferase in 293T/hACE2 cells” value (shortened to “IC50 (nM) … in 293T/hACE2 cells”) [3] was 4.48 nM. The “IC50 (nM) … in 293T/hACE2 cells” value [4] was 94.8 nM and the “IC50 (nM) … in 293T/hACE2 cells” value [5] was 6.16 nM.

B2: RG6 (antibody, V domains shown)
VH: EVQLLESGGGLVQPGGSLRLSCAASGFTFSDYSMSWVRQAPGKGLEWVSGIYHSDGSKYYADSVKGRFTISRDNSKNTLYLQMNSLRAEDTAVYYCARFDPVFDYWGQGTLVTVSS
VL: B1 VL with S23T, S35N, N53S, K54N, S94A, N97S
B2 was tested, and the IC50 [6] was 84 nM.

B3: RB6 (antibody, V domains shown)
VH: EVQLLESGGGLVQPGGSLRLSCAASGFTFSSYDMSWVRQAPGKGLEWVSGISYSGGSTYYADSVKGRFTISRDNSKNTLYLQMNSLRAEDTAVYYCARDVNFVPLVTFDYWGQGTLVTVSS
VL: B1 VL with I20L, S23T, A33S, S35T, A51D, K54Q, A91T, S94Y, N97S
notes: also called K102.2
In the case of B3, the Kd [7] is reported as 1.68 nM, the kon [7] is reported as 407000 M⁻¹ s⁻¹ and the Kd [8] is reported as 3.62 nM. For the same binder, the kon [8] was 154000 M⁻¹ s⁻¹, the Kd [9] was 1.6 nM and the kon [9] was 492000 M⁻¹ s⁻¹. The Kd [10] was 1.53 nM, the kon [10] was 333000 M⁻¹ s⁻¹ and the Kd [11] was 2.07 nM. The kon [11] was 454000 M⁻¹ s⁻¹, the IC50 [12] was 0.4 nM and the IC50 [13] was 0.86 nM. For the same binder, the IC50 [14] was 1.14 nM, the IC50 [15] was 3.23 nM and the Kd [16] was 1.68 nM. It also gave a kon [16] of 407000 M⁻¹ s⁻¹, a Kd [17] of 3.62 nM and a kon [17] of 154000 M⁻¹ s⁻¹. For the same binder, the Kd [18] was 1.6 nM, the kon [18] was 492000 M⁻¹ s⁻¹ and the Kd [19] was 1.53 nM. The kon [19] was 333000 M⁻¹ s⁻¹, the Kd [20] was 2.07 nM and the kon [20] was 454000 M⁻¹ s⁻¹.

B4: K202.A (bispecific antibody)
heavy: EVQLLESGGGLVQPGGSLRLSCAASGFTFSDYAMSWVRQAPGKGLEWVSWIYSGSGNKYYADSVKGRFTISRDNSKNTLYLQMNSLRAEDTAVYYCARFPIARTSNSQSSYDGMDVWGQGTLVTVSSASTKGPSVFPLAPCSRSTSESTAALGCLVKDYFPEPVTVSWNSGALTSGVHTFPAVLQSSGLYSLSSVVTVPSSSLGTKTYTCNVDHKPSNTKVDKRVESKYGPPCPPCPPCPAPEFLGGPSVFLFPPKPKDTLMISRTPEVTCVVVDVSQEDPEVQFNWYVDGVEVHNAKTKPREEQFNSTYRVVSVLTVLHQDWLNGKEYKCKVSNKGLPSSIEKGQPREPQVYTLPPSQEEMTKNQVSLTCLVKGFYPSDIAVEWESNGQPENNYKTTPPVLDSDGSFFLYSRLTVDKSRWQEGNVFSCSVMHEALHNHYTQKSLSLSLGK
light: QSVLTQPPSASGTPGQRVTISCSGSSSNIGSNAVSWYQQLPGTAPKLLIYADNKRPSGVPDRFSGSKSGTSASLAISGLRSEDEADYYCGAWDSSLNAYVFGGGTKLTVLVAAPSVFIFPPSDEQLKSGTASVVCLLNNFYPREAKVQWKVDNALQSGNSQESVTEQDSKDSTYSLSSTLTLSKADYEKHKVYACEVTHQGLSSPVTKSFNRGEC
scFv: EVQLLESGGGLVQPGGSLRLSCAASGFTFSSYDMSWVRQAPGKGLEWVSGISYSGGSTYYADSVKGRFTISRDNSKNTLYLQMNSLRAEDTAVYYCARDVNFVPLVTFDYWGQGTLVTVSSGGGGSGGGGSGGGGSQSVLTQPPSASGTPGQRVTLSCTGSSSNIGSNSVTWYQQLPGTAPKLLIYDDNQRPSGVPDRFSGSKSGTSASLAISGLRSEDEADYYCGTWDYSLSAYVFGGGTKLTVL
In the case of B4, the “IC50 (nM), pseudotyped virus infection” value [21] is reported as 0.27 nM, the “IC50 (nM), pseudotyped virus infection” value [1] is reported as 1.83 nM and the “IC50 (nM), pseudotyped virus infection” value [22] is reported as 0.24 nM. The “IC50 (nM), pseudotyped virus infection” value [23] was 1.74 nM, the “IC50 (nM), pseudotyped virus infection” value [2] was 0.18 nM and the “IC50 (nM), pseudotyped virus infection” value [24] was 0.46 nM.

B5: K202.B (bispecific antibody)
heavy: B4 heavy
light: B4 light
scFv: B4 scFv
B5 was tested, and the “IC50 (nM), pseudotyped virus infection” value [21] was 0.16 nM, the “IC50 (nM), pseudotyped virus infection” value [1] was 0.13 nM and the “IC50 (nM), pseudotyped virus infection” value [22] was 0.05 nM. The “IC50 (nM), pseudotyped virus infection” value [23] was 1.04 nM, the “IC50 (nM), pseudotyped virus infection” value [2] was 0.15 nM and the “IC50 (nM), pseudotyped virus infection” value [24] was 0.1 nM.
